Results: US20220204580A1 (AstraZeneca / MedImmune, published 2022)
Numbered stars: 1 amine (or outer) side, 2 acyl side, 3 side chain; on linkers, the order of the positions; unused ones are H or OH. Bridge positions count the residues as written; N and C are the ends. Square brackets hold non-standard residues; d marks the D form. Side chains are listed from the residue outwards. Ends that are not written are not given here. * marks the point of attachment. C18 diacid = O=C(O)CCCCCCCCCCCCCCCCC(=O)*; γGlu = O=C(O)[C@H](CCC(=O)[*:2])N[*:1]; Dab = NCC[C@H](N)C(=O)O; Aib = CC(C)(N)C(=O)O

T1: human amylin receptor (calcitonin receptor co-expressed with receptor activity modifying protein, RAMP3) (human, UniProt P30988 25-474; O60896 24-148)
T1 sequence (looked up) 1: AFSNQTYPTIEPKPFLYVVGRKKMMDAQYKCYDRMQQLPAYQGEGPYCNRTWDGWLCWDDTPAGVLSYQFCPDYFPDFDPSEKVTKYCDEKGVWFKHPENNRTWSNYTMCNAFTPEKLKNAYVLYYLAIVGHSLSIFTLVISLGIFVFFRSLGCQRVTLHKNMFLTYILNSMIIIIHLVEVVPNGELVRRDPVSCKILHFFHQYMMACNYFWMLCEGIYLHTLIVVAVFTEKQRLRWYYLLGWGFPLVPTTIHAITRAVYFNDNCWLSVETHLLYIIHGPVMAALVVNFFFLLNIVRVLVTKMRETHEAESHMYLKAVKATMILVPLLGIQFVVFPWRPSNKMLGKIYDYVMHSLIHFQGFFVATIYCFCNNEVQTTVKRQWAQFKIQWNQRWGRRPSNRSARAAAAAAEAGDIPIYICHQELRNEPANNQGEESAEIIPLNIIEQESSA
T1 sequence (looked up) 2: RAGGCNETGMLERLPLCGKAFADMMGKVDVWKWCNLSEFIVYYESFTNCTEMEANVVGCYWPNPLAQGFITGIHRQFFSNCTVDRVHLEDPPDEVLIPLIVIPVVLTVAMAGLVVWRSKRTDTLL

T2: human calcitonin receptor (human, UniProt P30988 25-474)
T2 sequence (looked up): T1 sequence (looked up) 1

T3: rat amylin receptor (calcitonin receptor co-expressed with receptor activity modifying protein, RAMP3) (rat, UniProt P32214 25-516; Q9JJ73 23-147)
T3 sequence (looked up) 1: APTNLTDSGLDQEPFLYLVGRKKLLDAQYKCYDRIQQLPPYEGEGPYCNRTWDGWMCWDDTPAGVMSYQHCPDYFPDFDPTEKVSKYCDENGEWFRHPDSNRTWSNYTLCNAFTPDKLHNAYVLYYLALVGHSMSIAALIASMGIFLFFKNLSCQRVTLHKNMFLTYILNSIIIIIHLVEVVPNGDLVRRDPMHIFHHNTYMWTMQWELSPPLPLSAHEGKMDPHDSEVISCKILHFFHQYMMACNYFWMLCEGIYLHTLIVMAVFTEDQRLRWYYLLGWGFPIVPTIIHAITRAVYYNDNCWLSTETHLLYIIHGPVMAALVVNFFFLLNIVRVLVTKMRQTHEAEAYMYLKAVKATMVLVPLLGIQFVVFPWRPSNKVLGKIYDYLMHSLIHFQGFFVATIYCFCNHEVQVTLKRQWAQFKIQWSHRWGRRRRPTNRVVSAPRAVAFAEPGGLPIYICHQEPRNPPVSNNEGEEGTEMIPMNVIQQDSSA
T3 sequence (looked up) 2: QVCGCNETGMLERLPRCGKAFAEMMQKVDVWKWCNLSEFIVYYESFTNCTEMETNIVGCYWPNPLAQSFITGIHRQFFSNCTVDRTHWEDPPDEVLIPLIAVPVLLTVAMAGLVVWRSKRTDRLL

T4: rat calcitonin receptor (rat, UniProt P32214 25-516)
T4 sequence (looked up): T3 sequence (looked up) 1

B1: Peptide 43 (SEQ ID NO: 43) (peptide)
peptide: K([γGlu-C18 diacid])KCNTATCATQRLANFLRHSS[Aib]NFGPILPPTEVGSNTY-NH2
modifications: disulfide 3-8; N-terminus assumed
SMILES: CC[C@H](C)[C@H](NC(=O)[C@@H]1CCCN1C(=O)CNC(=O)[C@H](Cc1ccccc1)NC(=O)[C@H](CC(N)=O)NC(=O)C(C)(C)NC(=O)[C@H](CO)NC(=O)[C@H](CO)NC(=O)[C@H](Cc1c[nH]cn1)NC(=O)[C@H](CCCNC(=N)N)NC(=O)[C@H](CC(C)C)NC(=O)[C@H](Cc1ccccc1)NC(=O)[C@H](CC(N)=O)NC(=O)[C@H](C)NC(=O)[C@H](CC(C)C)NC(=O)[C@H](CCCNC(=N)N)NC(=O)[C@H](CCC(N)=O)NC(=O)[C@@H](NC(=O)[C@H](C)NC(=O)[C@@H]1CSSC[C@H](NC(=O)[C@H](CCCCN)NC(=O)[C@@H](N)CCCCNC(=O)CC[C@H](NC(=O)CCCCCCCCCCCCCCCCC(=O)O)C(=O)O)C(=O)N[C@@H](CC(N)=O)C(=O)N[C@@H]([C@@H](C)O)C(=O)N[C@@H](C)C(=O)N[C@@H]([C@@H](C)O)C(=O)N1)[C@@H](C)O)C(=O)N[C@@H](CC(C)C)C(=O)N1CCC[C@H]1C(=O)N1CCC[C@H]1C(=O)N[C@H](C(=O)N[C@@H](CCC(=O)O)C(=O)N[C@H](C(=O)NCC(=O)N[C@@H](CO)C(=O)N[C@@H](CC(N)=O)C(=O)N[C@H](C(=O)N[C@@H](Cc1ccc(O)cc1)C(N)=O)[C@@H](C)O)C(C)C)[C@@H](C)O
B2: Peptide 44 (SEQ ID NO: 44) (peptide)
peptide: K([γGlu-C18 diacid])CNTATCATQRLANFLRHSS[Aib]NFGPILPPTEVGSNTY-NH2
modifications: disulfide 2-7; N-terminus assumed
SMILES: CC[C@H](C)[C@H](NC(=O)[C@@H]1CCCN1C(=O)CNC(=O)[C@H](Cc1ccccc1)NC(=O)[C@H](CC(N)=O)NC(=O)C(C)(C)NC(=O)[C@H](CO)NC(=O)[C@H](CO)NC(=O)[C@H](Cc1c[nH]cn1)NC(=O)[C@H](CCCNC(=N)N)NC(=O)[C@H](CC(C)C)NC(=O)[C@H](Cc1ccccc1)NC(=O)[C@H](CC(N)=O)NC(=O)[C@H](C)NC(=O)[C@H](CC(C)C)NC(=O)[C@H](CCCNC(=N)N)NC(=O)[C@H](CCC(N)=O)NC(=O)[C@@H](NC(=O)[C@H](C)NC(=O)[C@@H]1CSSC[C@H](NC(=O)[C@@H](N)CCCCNC(=O)CC[C@H](NC(=O)CCCCCCCCCCCCCCCCC(=O)O)C(=O)O)C(=O)N[C@@H](CC(N)=O)C(=O)N[C@@H]([C@@H](C)O)C(=O)N[C@@H](C)C(=O)N[C@@H]([C@@H](C)O)C(=O)N1)[C@@H](C)O)C(=O)N[C@@H](CC(C)C)C(=O)N1CCC[C@H]1C(=O)N1CCC[C@H]1C(=O)N[C@H](C(=O)N[C@@H](CCC(=O)O)C(=O)N[C@H](C(=O)NCC(=O)N[C@@H](CO)C(=O)N[C@@H](CC(N)=O)C(=O)N[C@H](C(=O)N[C@@H](Cc1ccc(O)cc1)C(N)=O)[C@@H](C)O)C(C)C)[C@@H](C)O
B3: Peptide 48 (SEQ ID NO: 48) (peptide)
peptide: K([γGlu-C18 diacid])CNTATCATQRLANFLRHSS[Aib]NFGPILPPTNVGSNTY-NH2
modifications: disulfide 2-7; N-terminus assumed
SMILES: CC[C@H](C)[C@H](NC(=O)[C@@H]1CCCN1C(=O)CNC(=O)[C@H](Cc1ccccc1)NC(=O)[C@H](CC(N)=O)NC(=O)C(C)(C)NC(=O)[C@H](CO)NC(=O)[C@H](CO)NC(=O)[C@H](Cc1c[nH]cn1)NC(=O)[C@H](CCCNC(=N)N)NC(=O)[C@H](CC(C)C)NC(=O)[C@H](Cc1ccccc1)NC(=O)[C@H](CC(N)=O)NC(=O)[C@H](C)NC(=O)[C@H](CC(C)C)NC(=O)[C@H](CCCNC(=N)N)NC(=O)[C@H](CCC(N)=O)NC(=O)[C@@H](NC(=O)[C@H](C)NC(=O)[C@@H]1CSSC[C@H](NC(=O)[C@@H](N)CCCCNC(=O)CC[C@H](NC(=O)CCCCCCCCCCCCCCCCC(=O)O)C(=O)O)C(=O)N[C@@H](CC(N)=O)C(=O)N[C@@H]([C@@H](C)O)C(=O)N[C@@H](C)C(=O)N[C@@H]([C@@H](C)O)C(=O)N1)[C@@H](C)O)C(=O)N[C@@H](CC(C)C)C(=O)N1CCC[C@H]1C(=O)N1CCC[C@H]1C(=O)N[C@H](C(=O)N[C@@H](CC(N)=O)C(=O)N[C@H](C(=O)NCC(=O)N[C@@H](CO)C(=O)N[C@@H](CC(N)=O)C(=O)N[C@H](C(=O)N[C@@H](Cc1ccc(O)cc1)C(N)=O)[C@@H](C)O)C(C)C)[C@@H](C)O
B4: Peptide 8 (SEQ ID NO: 8) (peptide)
peptide: K([γGlu-γGlu-C18 diacid])CNTATCATQRLANFLVHSS[Dab]NFPAILSPTNVGSNTY-NH2
modifications: disulfide 2-7; N-terminus assumed
SMILES: CC[C@H](C)[C@H](NC(=O)[C@H](C)NC(=O)[C@@H]1CCCN1C(=O)[C@H](Cc1ccccc1)NC(=O)[C@H](CC(N)=O)NC(=O)[C@H](CCN)NC(=O)[C@H](CO)NC(=O)[C@H](CO)NC(=O)[C@H](Cc1c[nH]cn1)NC(=O)[C@@H](NC(=O)[C@H](CC(C)C)NC(=O)[C@H](Cc1ccccc1)NC(=O)[C@H](CC(N)=O)NC(=O)[C@H](C)NC(=O)[C@H](CC(C)C)NC(=O)[C@H](CCCNC(=N)N)NC(=O)[C@H](CCC(N)=O)NC(=O)[C@@H](NC(=O)[C@H](C)NC(=O)[C@@H]1CSSC[C@H](NC(=O)[C@@H](N)CCCCNC(=O)CC[C@H](NC(=O)CC[C@H](NC(=O)CCCCCCCCCCCCCCCCC(=O)O)C(=O)O)C(=O)O)C(=O)N[C@@H](CC(N)=O)C(=O)N[C@@H]([C@@H](C)O)C(=O)N[C@@H](C)C(=O)N[C@@H]([C@@H](C)O)C(=O)N1)[C@@H](C)O)C(C)C)C(=O)N[C@@H](CC(C)C)C(=O)N[C@@H](CO)C(=O)N1CCC[C@H]1C(=O)N[C@H](C(=O)N[C@@H](CC(N)=O)C(=O)N[C@H](C(=O)NCC(=O)N[C@@H](CO)C(=O)N[C@@H](CC(N)=O)C(=O)N[C@H](C(=O)N[C@@H](Cc1ccc(O)cc1)C(N)=O)[C@@H](C)O)C(C)C)[C@@H](C)O
B5: Peptide 9 (SEQ ID NO: 9) (peptide)
peptide: K([γGlu-γGlu-C18 diacid])CNTATCATQRLANFLVHSS[Aib]NFPAILSPTNVGSNTY-NH2
modifications: disulfide 2-7; N-terminus assumed
SMILES: CC[C@H](C)[C@H](NC(=O)[C@H](C)NC(=O)[C@@H]1CCCN1C(=O)[C@H](Cc1ccccc1)NC(=O)[C@H](CC(N)=O)NC(=O)C(C)(C)NC(=O)[C@H](CO)NC(=O)[C@H](CO)NC(=O)[C@H](Cc1c[nH]cn1)NC(=O)[C@@H](NC(=O)[C@H](CC(C)C)NC(=O)[C@H](Cc1ccccc1)NC(=O)[C@H](CC(N)=O)NC(=O)[C@H](C)NC(=O)[C@H](CC(C)C)NC(=O)[C@H](CCCNC(=N)N)NC(=O)[C@H](CCC(N)=O)NC(=O)[C@@H](NC(=O)[C@H](C)NC(=O)[C@@H]1CSSC[C@H](NC(=O)[C@@H](N)CCCCNC(=O)CC[C@H](NC(=O)CC[C@H](NC(=O)CCCCCCCCCCCCCCCCC(=O)O)C(=O)O)C(=O)O)C(=O)N[C@@H](CC(N)=O)C(=O)N[C@@H]([C@@H](C)O)C(=O)N[C@@H](C)C(=O)N[C@@H]([C@@H](C)O)C(=O)N1)[C@@H](C)O)C(C)C)C(=O)N[C@@H](CC(C)C)C(=O)N[C@@H](CO)C(=O)N1CCC[C@H]1C(=O)N[C@H](C(=O)N[C@@H](CC(N)=O)C(=O)N[C@H](C(=O)NCC(=O)N[C@@H](CO)C(=O)N[C@@H](CC(N)=O)C(=O)N[C@H](C(=O)N[C@@H](Cc1ccc(O)cc1)C(N)=O)[C@@H](C)O)C(C)C)[C@@H](C)O

Target: T1, human amylin receptor (calcitonin …)
Test: cell-based or functional assay

Binder	EC50 (cAMP production) [nM]	Ratio (EC50 hCTR / EC50 hAMYR3)
B1	0.647	29
B2	0.284	22
B3	0.126	42
B4	0.375	54
B5	0.32	42

Target: T2, human calcitonin receptor
Test: cell-based or functional assay

Binder	EC50 (cAMP production) [nM]
B1	19
B2	6.26
B3	5.27
B4	20.2
B5	13.5

Target: T3, rat amylin receptor (calcitonin …)
Test: cell-based or functional assay

Binder	EC50 (cAMP production) [nM]
B1	0.0145
B2	0.0185
B3	0.0048
B4	0.0256
B5	0.0178

Target: T4, rat calcitonin receptor
Test: cell-based or functional assay

Binder	EC50 (cAMP production) [nM]
B1	3.65
B2	2.24
B3	2.43
B4	19.9
B5	9.72
